Results taken from EP3250590B1 (Academia Sinica, dated 2021).
Residue numbers refer to the chain shown, from its start.

B1: 3rd humanized MC41 IgG (antibody, V domains shown)
VH: QVQLKESGPGLVAPSKTLSLTCTVSGFSLSSQGVYWIRQPPGKGLEWIGAIWAGGSTNYNSALMSRLSISKDNSKSQVFLKMNSLQTDDTAMYYCARVDGYRGYNMDYWGQGTSVTVSS
VL: ENVLTQSPAIMSATPGEKVTMTCSASSSVSYMHWYQQKSSTSPKLWIYDTSKLASGVPGRFSGSGSGNSYTLTISSMEAEDVATYYCFQGSGYPLTFGAGTKLEIKR
notes: also called 3rd-hMC41
B2: 2nd humanized MC41 IgG (antibody, V domains shown)
VH: B1 VH with S114L
VL: B1 VL with M32L
notes: also called hMC41; humanized 2nd IgG
B3: chimeric MC41 (antibody, V domains shown)
VH: B1 VH with T17S, L20I, I37V, I48L
VL: B1 VL with T14S, T71S, I105L
notes: Chimeric intact IgG of murine MC41; also called chMC41

target: T1, BSA (bovine, UniProt P02769 25-607); assay: ELISA, intact IgG on coated BSA
T1 construct: also called BSA control protein; bovine serum albumin
T1 sequence (P02769 25-607 limits assumed): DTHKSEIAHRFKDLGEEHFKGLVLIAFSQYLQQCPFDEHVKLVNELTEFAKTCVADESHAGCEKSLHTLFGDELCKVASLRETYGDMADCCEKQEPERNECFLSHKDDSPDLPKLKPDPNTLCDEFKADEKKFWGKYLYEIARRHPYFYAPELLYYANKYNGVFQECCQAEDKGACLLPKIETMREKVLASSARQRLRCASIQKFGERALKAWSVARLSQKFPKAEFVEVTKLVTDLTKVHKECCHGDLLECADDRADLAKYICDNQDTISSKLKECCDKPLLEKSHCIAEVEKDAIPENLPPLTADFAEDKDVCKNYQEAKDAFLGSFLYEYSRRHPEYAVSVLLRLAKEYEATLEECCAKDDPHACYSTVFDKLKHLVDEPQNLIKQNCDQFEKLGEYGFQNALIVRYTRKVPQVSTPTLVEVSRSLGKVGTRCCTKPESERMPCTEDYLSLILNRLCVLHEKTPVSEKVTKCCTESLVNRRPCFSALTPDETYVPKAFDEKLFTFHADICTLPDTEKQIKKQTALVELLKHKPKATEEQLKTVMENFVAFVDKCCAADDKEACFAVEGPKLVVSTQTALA

binding result | Binder
no binding | B1
no binding | B2
no binding | B3
